Residue numbers refer to the chain shown, from its start.
Assays:
[1] = molecular target: T1, human CD47 (hCD47) expressed on cells (human, UniProt Q08722 19-323); experiment: flow cytometry, hCD47-CHO cells, competition with His-hSIRPα
T1 construct: Transfected CHO cells or endogenous CD47 of human cells; also called CHO-hCD47; CD47 on Raji cells
Method: (§1) Human CD47-transfected cells (3×10⁵ cells/well of 96-well plate) were first incubated at +4° C. for 30 minutes with serial dilutions of anti-CD47 antibodies or isotype control antibody (in mIgG2a or mIgG1 format). […] The percentage inhibition was plotted against antibody concentration and the IC50 values were calculated using a nonlinear regression analysis model of the GraphPad Prism software.

[2] = molecular target: T1, human CD47 (hCD47) expressed on cells; experiment: cell-based or functional assay
[3] = molecular target: T2, hu-sCD47-6His; extracellular domain of human CD47 antigen with 6His-tag (human); experiment: SPR Biacore T200, antibody captured, hCD47-his analyte; exponent printed without minus sign, read as 10^-8;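 for koff: antibodies captured on anti-IgG (Fc) CM5 chip, five sequential 10 min antigen injections at rising concentrations, reference flow cell and antigen-free cycle as controls, 1:1 model fit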;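 for kon: antibodies captured on anti-IgG (Fc) CM5 chip, five sequential 10 min antigen injections at rising concentrations, reference flow cell and antigen-free cycle as controls, 1:1 model fit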
T2 construct: also called hCD47-his; soluble hCD47
From the text: (§2) An anti-human or anti-mouse IgG (Fc) was first immobilized on the surface of Serie S Sensor Chips CM5 using the human or mouse antibody capture and amine coupling kits, following the manufacturer's instructions (GE Healthcare). […] The mouse, chimerized or humanized antibodies to be tested were then captured onto the appropriate anti-mouse or anti-human IgG surface in all flow cells except flow cell 1 used as control, at concentration and contact time adjusted so that ˜300 RU were captured on the surface. Binding kinetics were studied by passing increasing concentrations of hCD47-his in a series of five 10 minute injections through all flow cells at a rate of 30 μL/min. […] Following the final injection, buffer was passed across each flow cell for 60 minutes (mouse) or 30 minutes (human) to monitor the dissociation of bound antigen. Regeneration of the binding surface was carried out at the end of the cycle by flowing 3 M MgCl₂ for 60 s at 20 μL/min followed by 10 mM glycine-HCl, pH 1.7 for 180 s at 10 μl/min (for human) or by flowing 10 mM glycine-HCl, ph 1.7 for 360 s at 10 μl/min (for mouse). A second cycle with the same antibodies but no antigen was run as a control. Kinetics binding constants were estimated by non-linear fitting of the sensogram data to the 1:1 binding model provided by the Biacore T200 evaluation software.

[4] = molecular target: T1, human CD47 (hCD47) expressed on cells; experiment: flow cytometry, Raji cells
Method: (§3) Raji cells (ATCC-CLL-86; 2×10⁵ cells/well of 96-well plate) were first incubated at +4° C. for 30 minutes with serial dilutions of anti-CD47 antibodies or control isotype antibody (in mIgG2a or mIgG1 format). The cells were then washed and incubated for 30 minutes at +4° C. with a PE-conjugated F(ab)′2 goat anti-mouse IgG antibody ( 1/100 dilution, Beckman Coulter). After washings, the fluorescence of the cells was analyzed by flow cytometry on an Accuri-C6 flow cytometer (BD Biosciences).
(§4) The delta of MFI, representing the difference between the intensity measured with the tested antibody and the intensity in the absence of antibody, was calculated for each antibody concentration and the values were plotted against the antibody concentrations. The EC50 values were then calculated by using a nonlinear regression analysis model of the GraphPad Prism software.

[5] = molecular target: T2, hu-sCD47-6His; extracellular domain of …; experiment: SPR Biacore T200, antibody captured, hCD47-his analyte
From the text: as §2

[6] = molecular target: T3, mouse CD47 (mCD47) expressed on CHO cells (mouse, UniProt Q61735 19-303); experiment: flow cytometry, CHO-mCD47 cells
T3 construct: whole, on cells; also called CHO-mCD47
T3 sequence (looked up): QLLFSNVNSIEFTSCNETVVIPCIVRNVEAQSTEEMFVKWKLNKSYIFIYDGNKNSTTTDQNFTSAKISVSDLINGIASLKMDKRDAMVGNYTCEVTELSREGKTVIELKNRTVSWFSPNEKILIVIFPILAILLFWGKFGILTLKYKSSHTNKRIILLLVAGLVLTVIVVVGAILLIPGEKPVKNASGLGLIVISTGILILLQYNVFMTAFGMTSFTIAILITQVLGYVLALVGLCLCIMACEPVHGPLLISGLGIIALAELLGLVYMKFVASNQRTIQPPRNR

[7] = molecular target: T1, human CD47 (hCD47) expressed on cells; experiment: flow cytometry, hCD47-CHO cells, competition with His-hSIRPα; lower end tied to candidate 26 by Table 5
Method: as §1

[8] = molecular target: T1, human CD47 (hCD47) expressed on cells; experiment: flow cytometry, CD47-transfected CHO cells
[9] = molecular target: T1, human CD47 (hCD47) expressed on cells; experiment: flow cytometry, Raji cells; lower end tied to candidate 15 by Table 6
Method: as §3, §4

[10] = molecular target: T1, human CD47 (hCD47) expressed on cells; experiment: flow cytometry, Raji cells; upper end tied to candidate 19 by Table 6
Method: as §3, §4

[11] = molecular target: T1, human CD47 (hCD47) expressed on cells; experiment: flow cytometry, Raji cells, competition with His-hSIRPα; upper end tied to candidate 19 by Table 7
Method: (§5) The percent inhibition was plotted against antibody concentration and the IC50 values were calculated by using a nonlinear regression analysis model of the GraphPad Prism software.

[12] = molecular target: T1, human CD47 (hCD47) expressed on cells; experiment: flow cytometry, Raji cells, competition with His-hSIRPα
Method: as §5

[13] = molecular target: T1, human CD47 (hCD47) expressed on cells; experiment: flow cytometry, hCD47-CHO cells, competition with His-hSIRPα; upper end tied to candidate 33 by Table 5
Method: as §1

B1: Candidate 22 (VL008-AL13-8G5-8K3), mouse IgG (antibody, V domains shown)
VH: QVQLQQPGAELVKPGASVKLSCKASGYTFTTYWMHWVKQRPGQGLEWIGMIHPNSGTTNYNEKFKSKATLTVDKSSSSTYMQLSSLTSEDSAVYYCTRSHYYDGHFSYWGQGTLVTVSA
VL: DIVMSQSPSSLAVSAGEKVTMSCKSSQSLLNSRTRKNYLAWYQQKPGQSPKLLIYWASTRESGVPDRFTGSGSGTDFTLTISSVQAEDLAVYYCKQSYNLWTFGGGTRLEIK
notes: Recombinant mouse IgG2a or mIgG1 format, by assay; also called antibody 22
[1]
  IC50: 0.482 µg/mL
[2]
  Phagocytic index, Raji cells and human macrophages, antibody at 0.125 µg/mL: 106 Raji cells ingested per 100 macrophages
[3]
  Kd: 15.7 nM
[4]
  EC50: 0.136 µg/mL
[5]
  koff: 0.000325 s⁻¹
  kon: 20700 M⁻¹ s⁻¹
[6]
  binding result: no binding (tested: 7.3 µg/mL highest concentration)

B2: Candidate 26 (VT008-AL6-10G3-10K1), mouse IgG (antibody, V domains shown)
VH: QVQLQQPGPELVKPGASVKLSCKASGYTFTNYWIHWLNQRPGRGLEWIGRIDPNSGGTKYNEKFKSKAILTVDKSSSTTYMQLSSLTSEDSAVYYCARGGYTMDYWGQGTSVTVSS
VL: DVVMPQTPLSLPVSLGDHASISCRSSQSLLHSNGNTYLHWYLQKPGQSPKLLIYKVSYRFSGVPDRISGSGSGTDFTLKISRVEAEDLGVYFCFQSTHVPWTFGGGTKLEIK
notes: Recombinant mouse IgG2a or mIgG1 format, by assay
[1]
  IC50: 0.359 µg/mL
[2]
  Phagocytic index, Raji cells and human macrophages, antibody at 0.125 µg/mL: 85.3 Raji cells ingested per 100 macrophages
[4]
  EC50: 0.07 µg/mL
[7]
  IC50: 2.4 nM
[5]
  Kd: 1.87 nM
  koff: 0.000372 s⁻¹
  kon: 200000 M⁻¹ s⁻¹

B3: Candidate 29 (VT008-AL6-20G7-20K7), mouse IgG (antibody, V domains shown)
VH: QVQLQQSGTELAKPGASVKLSCKASGYTFINYWIYWVKERPGQVLEWIGYINPRSDDTKYNQKFRDRATLTADKSSTTAYLQLNSLTNDDSALYYCARGGFTMDFWGQGTSVTVSS
VL: B2 VL with P5T, H18Q, K50N, I67F, F94S, S96G, W101Y
[8]
  binding result: binds

B4: Candidate 15 (VT008-AL6-18G1-18K21), mouse IgG (antibody, V domains shown)
VH: QVQLQQPGAELVKPGTSVKLSCKASGYTFINYWIHWVKQRPGRGLEWIGRIDPNTVDAKYNEKFKSKATLTVDKPSSIAYMQLSSLTSEDSAVYYCSRGGYTMDYWGQGTSVTVSS
VL: B2 VL with P5T, H18Q, L30V, K50T, Y58N, I67F, V90I
notes: as for B2
[1]
  IC50: 0.605 µg/mL
[2]
  Phagocytic index, Raji cells and human macrophages, antibody at 0.125 µg/mL: 74.4 Raji cells ingested per 100 macrophages
[9]
  EC50: 0.2 nM
[4]
  EC50: 0.031 µg/mL
[5]
  Kd: 4.24 nM
  koff: 0.00239 s⁻¹
  kon: 565000 M⁻¹ s⁻¹

B5: Candidate 19 (VL008-AL17-7G1-7K6), mouse IgG (antibody, V domains shown)
VH: QVQLQQSGPELVKPGASVKISCKASVYTFTDYYINWVKQRPGQGLEWVGWIFPGSGLTYYNKKFKGKATLTVDKSSSTAYMLLSSLTSEDSAVYFCARPYYGSRWDYAMDYWGQGTSVTVSS
VL: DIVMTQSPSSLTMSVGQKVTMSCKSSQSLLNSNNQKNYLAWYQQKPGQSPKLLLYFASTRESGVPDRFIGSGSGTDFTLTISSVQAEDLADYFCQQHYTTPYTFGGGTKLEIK
notes: as for B2
[1]
  IC50: 0.858 µg/mL
[2]
  Phagocytic index, Raji cells and human macrophages, antibody at 0.125 µg/mL: 73.9 Raji cells ingested per 100 macrophages
[4]
  EC50: 0.165 µg/mL
[5]
  Kd: 2.25 nM
  koff: 0.000176 s⁻¹
  kon: 79000 M⁻¹ s⁻¹
[10]
  EC50: 1.1 nM
[6]
  binding result: no binding (tested: 7.3 µg/mL highest concentration)

B6: Candidate 19, chimeric hIgG format (hIgG1 or hIgG4) (antibody, V domains shown)
VH: B5 VH
VL: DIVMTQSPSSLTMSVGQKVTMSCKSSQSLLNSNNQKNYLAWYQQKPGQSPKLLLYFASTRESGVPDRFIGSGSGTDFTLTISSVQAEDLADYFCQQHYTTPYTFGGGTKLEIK
notes: also called Candidate 19 (hIgG format)
[11]
  IC50: 2.46 nM
[12]
  IC50: 0.369 µg/mL

B7: Candidate 33 (VL008-AL17-8G5-8K7), mouse IgG (antibody, V domains shown)
VH: B5 VH with Q1L, A16T, K23R, A24S, V26G, K38Q, T71S, S77N, A108T
VL: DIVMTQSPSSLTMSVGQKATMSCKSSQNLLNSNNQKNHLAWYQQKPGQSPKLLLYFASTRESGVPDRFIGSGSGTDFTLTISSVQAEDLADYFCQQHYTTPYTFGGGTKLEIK
notes: as for B2
[1]
  IC50: 1.11 µg/mL
[2]
  Phagocytic index, Raji cells and human macrophages, antibody at 0.125 µg/mL: 71.4 Raji cells ingested per 100 macrophages
[4]
  EC50: 0.112 µg/mL
[13]
  IC50: 7.3 nM
[5]
  Kd: 0.898 nM
  koff: 6.7e-05 s⁻¹
  kon: 74600 M⁻¹ s⁻¹
[6]
  binding result: no binding (tested: 7.3 µg/mL highest concentration)

— patent publication US20220356245A1 (FORTY SEVEN, published 2022)
